Experimental findings from the nanobody polyreactivity screen of Harvey et al. (2022) are described below.

This series can be described thus: yeast display, Sf9 membrane polyspecificity reagent, FACS + sequencing; frameworks hold sequencing errors. The gist of the method:
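After 36–48 hours of galactose induction, yeast (Saccharomyces cerevisiae BJ5465) displaying a synthetic nanobody library were stained at 4 °C for 1 hour with 10% biotinylated, detergent-solubilized Sf9 membrane reagent. Streptavidin microbeads enriched the stained cells before FACS sorting into low and high (top ~1%) gates on anti-HA and streptavidin fluorescence. Each clone's polyreactivity label reflects its gate of origin.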
“QVQLVESGGGLVQAGGSLRLSCAASGLIFVGYAMGWYRQAPGTERELVAAITSGGSTNYADSVKGRFTISRDNAKNTVYLQMNSLKPEDTAVYYCAASDAIPLRYDYWGQGTQVTVSS”: the “polyreactivity (PSR sort gate)” value is given as “low polyreactivity”.
The entry for “QVQLVESGGGLVQAGGSLRLSCAASGSIFGDNAMGWYRQAPGKERELVAAISGSTGSTNYADSVKGRFTISRDNAKNTVYLQMNSLKPEDTAVYYCNVGGLEYFVFKGVSVPDDYWGQGTQVTVSS” is “low polyreactivity”.
The entry for “QVQLVESGGGLVQAGGSLRLSCAGSGSIFKRYAMGWYRQAPGKERELVAAITSRGGSTYYADSVKGRFTISRDTAKNTVYLQLNSLKPEDTAVYYCAATRSSTNGYDYWGQGTQVTVSS” is “high polyreactivity”.
The same measure for “QVQLEESRGGLVQAGGSLRLSCAASGITFYTYAMGWYRQAPGKETELVAAITSRTGSTYYADSVKGRFTISRDNAKNTVYLQMNSLKPEDTAVYDCAADRTRGRDGSDYWGQGTQVTVSS”: “low polyreactivity”; for “QVQLVESGGGLVQAGGSLRLSCAASGSIFTLYAMGWYRQAPGKDRELVATINWSGGSTSYADSGKGRFTISRDNAKNTVYLQMNSLKPEETAVYYCARLGTYTVVTYDYWGQGTQVTVSS”: “low polyreactivity”; for “QVQLVETAAGLVKSGGSLPLSCAASGRIFKRYAMGWYRQAPGQARELVATINLSCGSTYYADSVKGRFTISRDNAKNTGYLQMNSRKPEDTAVYYCAYDAAGAPEGPYDYWGQGTQVTVSS”: “high polyreactivity”.
For “QVQLVESGGGLVQAGGTLRLSCAASGITFTGNDMGWYRQAPGKERELVAAISNRGGSTYYADSVKGRFTISRDNAKNTVYLQMNSLKPEDTAVYYCRTSTPRRVSGNYWGQGTQVTVSS”, the “polyreactivity (PSR sort gate)” value is “high polyreactivity”.
The same measure for “QVQLVESGGGLVQAGGSLRLSCAASGSTFSRYAMGWYRQAPGKERELVAAISSNGGRTYYADSVKGRFTISRDNAKNTVYLQMNSLKPEDTAVYYCAAVNYLTMDYWGQGTQVTVSS”: “high polyreactivity”; for “QVQLVESGGGLVQAGGSLRLSCAASGLIFPRYAMGWYRQAPGKERELVAAITRGGSTYYADSVKGRFTISRDNAKNTVYLQMNSLNPEDTAVYYCTAELPVHWSWYDYWGQGPQVTVSS”: “low polyreactivity”.
Turning to “QVPLVESGGGLVQAGGSLRLSCAASGRTFWNYAMGWYRPAPGKERELVAVSRFSDGSTYYADSVKGRFTISRDNAKNTVYLQMNSLKPEDTAVDDGAAKGPRRWGSGFDYWGQGTQVTVSS”, the “polyreactivity (PSR sort gate)” value is given as “low polyreactivity”.
The same measure for “QVQLVESGGGLVQAGGSLSLSCAASGRTFDTYAMGWYRQAPGKERELVASITQSGGTTYYADSVKGRFTISRDNAKNTVYLQMNSLKPEDTAVYYCAARSYGSTSPIRVQLYYWGQGTQVTVSS”: “high polyreactivity”; for “QVQLVESGGGLVQAGGSLRLSCAASGSTLGYYAMGWYRQAPGKERELVAAISGRGTSTYYADSVKGRFTISRDNAKTTVYLQMNSLKPEDSAVFYCAAQLFRELYWGQGTQVNVSS”: “high polyreactivity”; for “QVQLVESGGGLVQAGGSLRLSCAASGSIFRYYVMGWYRQAPGKERELVAAITGGGGSTYYADSVKGRFTISRDNAKNTVYLQMNSLKPEDTAVYYCATATYVGVYWEYDYWGQGTQVTVSS”: “low polyreactivity”.
The same measure for “QVQLVESGGGLVQAGGSLRLSCAASGFIFSGYAMGWYRQAPGKERELVAAIRWSTGSTYYADSVKGRFTISRDNAKNTVYLQMNSLKPEDTAVYYCNAYRYQWAQSTEYDYWGQGTQVTVSS”: “high polyreactivity”; for “QVQLVESGGGLVQAGGSLRISCAASGRTFGPYAMGWYRQAPGKERELGAAITSSGGSTYYADSVKGRFTISRDNAKNTVYLQMNSLKPEDTAVFYCNKLYWRQSLDYDYWGQGTQVTVSS”: “low polyreactivity”; for “QVQLVESGGGLVQAGGSLRLSCAASGRTFDPNVMGWYRQAPGKERELVAAISRGGSTYYADSVKGRFTISRDNAKNTVYLQMNSLKPEDTAVYYCAATHYGHSISYWFDYWGQGTQVTVSS”: “high polyreactivity”.
The entry for “QVQLVESGGGLVQAGGSLRLSCAASGNTLAYYDMGWYRQAPGKESELVAAITSGGTTNYADSVKGRFTISRDNAKNTVYLQMNSLKPEDTAVYYSAALGIGSSRRFSGYVYWGQGTQVTVSS” is “low polyreactivity”; for “QVQLVESGGGLVQAGGSLRLSCAASGRNFSYYAMGWYRQAPGKERELVAFISSGGNTYYADSVKGRFTISRDNAKNTVYLPMNSLKPEDTAVYYSGADPNAQGYPQVNYWGQGTQVTVSS” it is “high polyreactivity”.
Consider “QVQLVESGGGLVQAGGSLRLSCAASGRTFGWNVMGWYRQAPGKERELVAAISGGGTSTYYADSVKGRFTISRDNAKNTVYLQMNSLKPEDTGVYYCNAYYPGSYYPRSGRYDYWGQGTQVTVSS”, for which the “polyreactivity (PSR sort gate)” value is recorded as “high polyreactivity”.
In the case of “QVQLVESGGGLVQAGGSLRLSCAASGRILSYYAMGWYRQAPGKERELVAAISWGGGRTFYADSVKGRFTISRDNAKNTVYLQMNSLQPEDTAVYYCNADSYRWGAHDYWGQGTQVTVSS”, the “polyreactivity (PSR sort gate)” value is listed as “high polyreactivity”.
The entry for “QVQLVESGGGLVQAGGSLRLSCAASVRIFRINTMGWYRQAPGKERELVAAIRTSGSSTYADSVKGRFTISRDNAKNTVYLQMNSLKPEDTAVYYCNTKYPGRGYYWGQGTQVTVSS” is “high polyreactivity”; for “QVQLVESAGGLVQAGGSLSLSCAASGFTFYRNAMGWYRQAPGQERELVAAISRSGGRTYYADSVKGRFTISRDNAKNTVYLQMNSLKPEDTSVYYCAVYVTRDSGWWLYDYWGQGTQVTVSS” it is “high polyreactivity”; for “QVQLVESGGVLVQAGGSLPLSCAASGRILARNAMGWYRQAPGNERELVAAITSSTDSTYYADSVKGRFTISRDNAKNTVYLQMNSLKPEDTAVYYCATVVRLYRGRYSYDYWGQGTQVTVSS” it is “high polyreactivity”.
The entry for “QVHLVESGGGLVQAGGSLRLSCAASGRTFDLNAMGWYRQAPGKERELVAGISSSGGRTYYADSVKGRFTISRDNAKNTVYLQMNSLIPEDTAVYYCAKVYPSYVLRKYDYWGQGTQVTVSS” is “high polyreactivity”; for “QVQLVESVGGLVQAGGSLRLSCAASGRTFMYNAMGWYRQAPGKERELVAAISWSGGSTYYADSVKGRFTISRDNAKNTVYFLMNSLKPEDTAVYYCAATGRRSGFYFWGQGTQVTVSS” it is “high polyreactivity”; for “QVQLVESAGGLVQAAASLRLSCADSGITFVVYTMGWYRQAPGKERELVASISISGDSTNYADSVKGRFTISRDNAKNTVYLQMNSLKPEDTAVYYCNAAFYHFQFPWIAYDYWGQGTQVTVSS” it is “low polyreactivity”.
With “QVQLVESGGGLVQAGGRLRLSCAASGRIFPRYVMGWYRQAHGKERELVAAITYRGGSTSYADSVKGRFTISRDNAKNTVYLQMNSLKPEDTAVYYCNAYRRAGRTVGTTRRYYYLGQGTQVTVSS”, the “polyreactivity (PSR sort gate)” value is reported as “high polyreactivity”.
The entry for “QVHLVESGGGLVQAGGSLRLSCAASGIIFYLYAMGRYRQAPGKERELVAGITSGGDTKYADSVKGRFTISRDNAKNTVYLQMNSLKPEDTAVYYCATDSGSVWQRWGYANYDYWGQGTQVTVSS” is “low polyreactivity”.
The entry for “QGQLVESGGGLVQAGGSLRLSSAASGSTFVYAMGWYRQAPGKERVLVASISWSDSSTYYADSVKGRFTISRDNAKNTVYLQMNSQKREDTAVYYGYADQGTRDSDYWGQGTQGTVSS” is “low polyreactivity”; for “QVQLVESGGGLVQAGGSLRLSCAASGRTFRLYAMGWYRQAPGKERELDAAIRTDDSTNYADSVKGRFTISRDNAKNTVYLQMNSLKPEDTAVYYCNAEGQFTWLGRRRHKFEYWGQGTQVTVSS” it is “low polyreactivity”.
In the case of “QVQLVESGGGLVQAGGSLRLSCAASGRIFERYPMGWYRQAPGKERELVAGISISGGGTYYADSVKGRFTISRDTAKNTVYLQRNSLKPEDTAVSYCAATFPREEYGYWGQGTLVTVSS”, the “polyreactivity (PSR sort gate)” value is reported as “low polyreactivity”.
The same measure for “QVQHVESRGGLVQAGGSLRLSCAASGRTFFWYAMGWYRQAPGKERELVADISSSGGSTYYADSVKGRFTISRDNAKNTVYLQMNSLKPEDTAVYYCAALSPWWRGGYNYWGQGTQVTVSS”: “high polyreactivity”.
The same measure for “HVQLVESGGGLVQAGGSLRLSCAASGRILSRNAMGRYRPAPGKERELVAAISISGGSTYYADSVKGRFTISRDNAKNTVYLQRNSLKPEDTAVYYCNTAYYGYRKYDYWGQGTQVTVSS”: “high polyreactivity”.
The same measure for “QVQLVESGGGLVQAGGSLRLSCAASGRIFRWNAMGWYRQAPGKERELVAAISRSGGSTYYADSVKRRFTISRDNAKNTVYLQMNSLKPEDTAVYYCNTRFSTFTAPGYYYWGQGTQVTVSS”: “high polyreactivity”.
As for “QVQLVESGGGLVQAGGSLRLSCAASGVIFESNAMAWYRQAPGKERELVAANTKRGGSTYYADSVKGRFTISRDNAKNTVYLQMKSLKPEDTAVYYCNALGYWRRVVDGFDNWGQGTQVTVSS”, the “polyreactivity (PSR sort gate)” value was “high polyreactivity”.
The same measure for “QVQLVESGGGLVQAGGSLRLSCAASGSSFRFYAMGWYRQAPGKERELVATIRYSTGTTYYADSVKGRFTISRDNAKNTVYLQMNSLKPEDTAVYYCAAGYFIYSWRIRFDYWGQGTQVTVSS”: “high polyreactivity”; for “QVQLVESGGGLVQAGGSLPLSCAASGRTFPFNALGWYRQAPGKEREFVAAISVGGGSTYADSVKGRFTISRDNAKNTFYLQMNSLKPEDTAVYYCAAAYTKLYYYWGQGTQVTVSS”: “low polyreactivity”.
The same measure for “QVQLVESGGGLVQSGGSLRLSCAASGLIIGLYAMGWYRQAPGTERELVAAISDNGARTYYADSVKGRFTISRDYAKYTVYLQMNSLKPEDTAVDYCARDQSYHYNYWGQGTQVTVSS”: “low polyreactivity”; for “QVQLVESGGGLVQAGGSLRLSCAASGRIFYNYAMGWYRQAPGKERELVAAISGSGGSTYYADSVKGRFTISRDNAMNTVYLQMNSLKPEDTAVYYCSTSGPQYYSRNFDYWGQGTQVTVSS”: “low polyreactivity”; for “QVQHVESGGGLVQAGGSLRLSCAASVSTFEYYAIGRYRQAPGKERELVASISSGGSTYYADSVKGRFTISRDNAKNTVYLQMNSLKPEDTAVYYCAADSYYGYEYWGQGTQVTVSS”: “low polyreactivity”.
The entry for “QVHLVESGGGLVQAGGSLRLSCAASGSIIRYYAMGWYRQAPGKERELVAVITRGGSTYYADSVKGRFTISRDNAKSTVYLQMNSLKPEDTAVYYCAADYWPAGLDRGYWGQGTQVTVSS” is “low polyreactivity”.
